From US20240132485A1, “HETEROCYCLIC CULLIN RING UBIQUITIN LIGASE COMPOUNDS AND USES THEREOF” (CEMM - FORSCHUNGSZENTRUM FÜR MOLEKULARE MEDIZIN GMBH, priority 2020, published 2024)

Tests used:
[1] = target: Nanoluc_DDB1 (N-terminal Nanoluc luciferase, G4S linker, DDB1 (FL)) (UniProt Q16531); assay: NanoBRET in HEK293T cells, 10 µM compound Example 3-20; class C = 2-3 fold increase
[2] = target: Nanoluc_DDB1 (N-terminal Nanoluc luciferase, G4S linker, DDB1 (FL)) (UniProt Q16531); assay: NanoBRET in HEK293T cells, 10 µM compound Example 3-31; class C = 2-3 fold increase
[3] = target: Nanoluc_DDB1 (N-terminal Nanoluc luciferase, G4S linker, DDB1 (FL)) (UniProt Q16531); assay: NanoBRET in HEK293T cells, 10-point titration of compound Example 3-44; class A = EC50<=0.25 µM
[4] = target: Nanoluc_DDB1 (N-terminal Nanoluc luciferase, G4S linker, DDB1 (FL)) (UniProt Q16531); assay: NanoBRET in HEK293T cells, 10 µM compound Example 3-19; class A = greater than 4-fold increase
[5] = target: Nanoluc_DDB1 (N-terminal Nanoluc luciferase, G4S linker, DDB1 (FL)) (UniProt Q16531); assay: NanoBRET in HEK293T cells, 10-point titration of compound Example 3-53; class E = >10 µM
[6] = target: Nanoluc_DDB1 (N-terminal Nanoluc luciferase, G4S linker, DDB1 (FL)) (UniProt Q16531); assay: NanoBRET in HEK293T cells, 10 µM compound Example 3-64; class A = greater than 4-fold increase
[7] = target: Nanoluc_DDB1 (N-terminal Nanoluc luciferase, G4S linker, DDB1 (FL)) (UniProt Q16531); assay: NanoBRET in HEK293T cells, 10-point titration of compound Example 3-22; class E = >10 µM
[8] = target: Nanoluc_DDB1 (N-terminal Nanoluc luciferase, G4S linker, DDB1 (FL)) (UniProt Q16531); assay: NanoBRET in HEK293T cells, 10 µM compound Example 3-36; class C = 2-3 fold increase
[9] = target: Nanoluc_DDB1 (N-terminal Nanoluc luciferase, G4S linker, DDB1 (FL)) (UniProt Q16531); assay: NanoBRET in HEK293T cells, 10 µM compound Example 3-25; class B = 3-4 fold increase
[10] = target: Nanoluc_DDB1 (N-terminal Nanoluc luciferase, G4S linker, DDB1 (FL)) (UniProt Q16531); assay: NanoBRET in HEK293T cells, 10 µM compound Example 3-27; class B = 3-4 fold increase
[11] = target: Nanoluc_DDB1 (N-terminal Nanoluc luciferase, G4S linker, DDB1 (FL)) (UniProt Q16531); assay: NanoBRET in HEK293T cells, 10-point titration of compound Example 3-14; class A = EC50<=0.25 µM
[12] = target: Nanoluc_DDB1 (N-terminal Nanoluc luciferase, G4S linker, DDB1 (FL)) (UniProt Q16531); assay: NanoBRET in HEK293T cells, 10 µM compound Example 3-47; class A = greater than 4-fold increase
[13] = target: Nanoluc_DDB1 (N-terminal Nanoluc luciferase, G4S linker, DDB1 (FL)) (UniProt Q16531); assay: NanoBRET in HEK293T cells, 10 µM compound Example 3-2; class B = 3-4 fold increase
[14] = target: Nanoluc_DDB1 (N-terminal Nanoluc luciferase, G4S linker, DDB1 (FL)) (UniProt Q16531); assay: NanoBRET in HEK293T cells, 10 µM compound Example 3-14; class A = greater than 4-fold increase
[15] = target: Nanoluc_DDB1 (N-terminal Nanoluc luciferase, G4S linker, DDB1 (FL)) (UniProt Q16531); assay: NanoBRET in HEK293T cells, 10 µM compound Example 3-63; class B = 3-4 fold increase
[16] = target: Nanoluc_DDB1 (N-terminal Nanoluc luciferase, G4S linker, DDB1 (FL)) (UniProt Q16531); assay: NanoBRET in HEK293T cells, 10 µM compound Example 3-53; class B = 3-4 fold increase
[17] = target: Nanoluc_DDB1 (N-terminal Nanoluc luciferase, G4S linker, DDB1 (FL)) (UniProt Q16531); assay: NanoBRET in HEK293T cells, 10 µM compound Example 3-12; class D = 1-2 fold increase
[18] = target: Nanoluc_DDB1 (N-terminal Nanoluc luciferase, G4S linker, DDB1 (FL)) (UniProt Q16531); assay: NanoBRET in HEK293T cells, 10 µM compound Example 3-57; class B = 3-4 fold increase
[19] = target: Nanoluc_DDB1 (N-terminal Nanoluc luciferase, G4S linker, DDB1 (FL)) (UniProt Q16531); assay: NanoBRET in HEK293T cells, 10 µM compound Example 3-16; class C = 2-3 fold increase
[20] = target: Nanoluc_DDB1 (N-terminal Nanoluc luciferase, G4S linker, DDB1 (FL)) (UniProt Q16531); assay: NanoBRET in HEK293T cells, 10 µM compound Example 3-51; class B = 3-4 fold increase
[21] = target: Nanoluc_DDB1 (N-terminal Nanoluc luciferase, G4S linker, DDB1 (FL)) (UniProt Q16531); assay: NanoBRET in HEK293T cells, 10 µM compound Example 3-9; class A = greater than 4-fold increase
[22] = target: Nanoluc_DDB1 (N-terminal Nanoluc luciferase, G4S linker, DDB1 (FL)) (UniProt Q16531); assay: NanoBRET in HEK293T cells, 10 µM compound Example 3-17; class A = greater than 4-fold increase
[23] = target: Nanoluc_DDB1 (N-terminal Nanoluc luciferase, G4S linker, DDB1 (FL)) (UniProt Q16531); assay: NanoBRET in HEK293T cells, 10-point titration of compound Example 3-63; class E = >10 µM
[24] = target: Nanoluc_DDB1 (N-terminal Nanoluc luciferase, G4S linker, DDB1 (FL)) (UniProt Q16531); assay: NanoBRET in HEK293T cells, 10 µM compound Example 3-6; class C = 2-3 fold increase
[25] = target: Nanoluc_DDB1 (N-terminal Nanoluc luciferase, G4S linker, DDB1 (FL)) (UniProt Q16531); assay: NanoBRET in HEK293T cells, 10 µM compound Example 3-52; class A = greater than 4-fold increase
[26] = target: Nanoluc_DDB1 (N-terminal Nanoluc luciferase, G4S linker, DDB1 (FL)) (UniProt Q16531); assay: NanoBRET in HEK293T cells, 10-point titration of compound Example 3-62; class A = EC50<=0.25 µM

Chain of Nanoluc_DDB1 (N-terminal Nanoluc luciferase, G4S linker, DDB1 (FL)) (Q16531 other isoform, or with tags, fused parts or gaps): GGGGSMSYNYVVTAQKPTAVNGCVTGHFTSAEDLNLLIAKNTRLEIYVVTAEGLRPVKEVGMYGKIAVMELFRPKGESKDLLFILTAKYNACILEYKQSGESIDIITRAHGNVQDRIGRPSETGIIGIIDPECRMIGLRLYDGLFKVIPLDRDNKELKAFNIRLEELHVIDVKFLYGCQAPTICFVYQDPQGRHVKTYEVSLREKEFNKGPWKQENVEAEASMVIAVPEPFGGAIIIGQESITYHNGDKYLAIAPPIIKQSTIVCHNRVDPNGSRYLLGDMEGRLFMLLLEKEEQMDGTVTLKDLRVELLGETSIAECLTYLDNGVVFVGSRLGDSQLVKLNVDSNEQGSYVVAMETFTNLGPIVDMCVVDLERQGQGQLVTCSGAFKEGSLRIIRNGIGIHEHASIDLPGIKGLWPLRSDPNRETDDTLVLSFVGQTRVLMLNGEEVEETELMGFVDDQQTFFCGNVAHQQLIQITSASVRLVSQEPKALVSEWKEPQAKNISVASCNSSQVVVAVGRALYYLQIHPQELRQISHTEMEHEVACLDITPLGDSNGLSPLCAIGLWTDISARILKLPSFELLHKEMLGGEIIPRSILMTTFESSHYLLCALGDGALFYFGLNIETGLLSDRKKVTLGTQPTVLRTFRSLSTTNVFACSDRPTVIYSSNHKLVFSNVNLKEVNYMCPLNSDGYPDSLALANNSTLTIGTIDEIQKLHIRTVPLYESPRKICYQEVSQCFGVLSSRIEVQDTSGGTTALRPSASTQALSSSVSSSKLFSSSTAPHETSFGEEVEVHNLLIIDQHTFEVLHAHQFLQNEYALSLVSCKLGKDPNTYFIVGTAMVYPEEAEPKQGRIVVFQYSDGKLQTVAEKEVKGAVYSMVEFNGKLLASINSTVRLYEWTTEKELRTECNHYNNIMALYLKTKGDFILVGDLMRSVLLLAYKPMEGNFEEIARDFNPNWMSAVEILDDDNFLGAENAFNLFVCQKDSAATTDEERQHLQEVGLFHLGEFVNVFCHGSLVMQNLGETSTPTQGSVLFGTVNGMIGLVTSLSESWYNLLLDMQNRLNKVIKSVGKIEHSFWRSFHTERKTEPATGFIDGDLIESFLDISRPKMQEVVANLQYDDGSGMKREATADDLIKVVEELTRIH

NanoBRET fold increase [1]: 2 to 3 fold
NanoBRET fold increase [2]: 2 to 3 fold
EC50 [3]: < 0.25 µM
NanoBRET fold increase [4]: > 4 fold
EC50 [5]: > 10 µM
NanoBRET fold increase [6]: > 4 fold
EC50 [7]: > 10 µM
NanoBRET fold increase [8]: 2 to 3 fold
NanoBRET fold increase [9]: 3 to 4 fold
NanoBRET fold increase [10]: 3 to 4 fold
EC50 [11]: < 0.25 µM
NanoBRET fold increase [12]: > 4 fold
NanoBRET fold increase [13]: 3 to 4 fold
NanoBRET fold increase [14]: > 4 fold
NanoBRET fold increase [15]: 3 to 4 fold
NanoBRET fold increase [16]: 3 to 4 fold
NanoBRET fold increase [17]: 1 to 2 fold
NanoBRET fold increase [18]: 3 to 4 fold
NanoBRET fold increase [19]: 2 to 3 fold
NanoBRET fold increase [20]: 3 to 4 fold
NanoBRET fold increase [21]: > 4 fold
NanoBRET fold increase [22]: > 4 fold
EC50 [23]: > 10 µM
NanoBRET fold increase [24]: 2 to 3 fold
NanoBRET fold increase [25]: > 4 fold
EC50 [26]: < 0.25 µM
Substance: HaloTag_CDK12 (N-terminal HaloTag, G4S linker, CDK12 (713-1052)) (from UniProt Q9NYV4 713-1052) (enzyme)
